For assay [1], the target named is T1, selenomethionine-containing Pds5B_(21–1120) (human, UniProt Q9NTI5 21-1120, selenomethionine-containing).
T1 sequence (looked up): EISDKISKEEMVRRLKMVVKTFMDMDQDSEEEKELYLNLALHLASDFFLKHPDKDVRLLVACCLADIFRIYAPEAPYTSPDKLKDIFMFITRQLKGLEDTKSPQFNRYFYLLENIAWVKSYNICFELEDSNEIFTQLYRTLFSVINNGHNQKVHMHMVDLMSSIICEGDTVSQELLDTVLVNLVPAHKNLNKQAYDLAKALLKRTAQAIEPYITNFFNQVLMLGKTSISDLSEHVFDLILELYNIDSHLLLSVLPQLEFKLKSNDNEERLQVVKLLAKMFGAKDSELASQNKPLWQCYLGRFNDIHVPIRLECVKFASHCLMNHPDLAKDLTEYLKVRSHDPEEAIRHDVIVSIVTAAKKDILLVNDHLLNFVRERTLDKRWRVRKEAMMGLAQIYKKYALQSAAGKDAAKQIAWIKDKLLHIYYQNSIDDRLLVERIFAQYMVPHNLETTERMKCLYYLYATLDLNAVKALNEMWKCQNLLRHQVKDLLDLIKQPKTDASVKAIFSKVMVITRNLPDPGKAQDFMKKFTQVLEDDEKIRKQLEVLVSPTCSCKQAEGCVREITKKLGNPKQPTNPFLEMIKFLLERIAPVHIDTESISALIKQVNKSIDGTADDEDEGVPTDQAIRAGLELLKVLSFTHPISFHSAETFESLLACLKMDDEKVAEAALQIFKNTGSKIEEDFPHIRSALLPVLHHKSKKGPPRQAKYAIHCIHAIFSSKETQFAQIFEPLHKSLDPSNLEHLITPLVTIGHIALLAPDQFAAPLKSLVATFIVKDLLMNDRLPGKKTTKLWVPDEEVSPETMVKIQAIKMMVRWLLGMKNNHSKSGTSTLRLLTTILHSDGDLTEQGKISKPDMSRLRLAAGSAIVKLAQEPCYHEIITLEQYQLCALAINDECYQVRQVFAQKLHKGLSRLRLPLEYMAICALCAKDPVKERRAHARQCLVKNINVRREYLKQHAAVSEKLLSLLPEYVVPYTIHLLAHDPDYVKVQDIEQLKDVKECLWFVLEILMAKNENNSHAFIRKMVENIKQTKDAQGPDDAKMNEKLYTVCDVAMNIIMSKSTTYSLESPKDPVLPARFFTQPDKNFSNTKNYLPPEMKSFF
The experiment in a line: crystal structure.

The target in assay [2] is T2, recombinant human Pds5B_(1–1120) (human, UniProt Q9NTI5 1-1120).
T2 sequence (looked up): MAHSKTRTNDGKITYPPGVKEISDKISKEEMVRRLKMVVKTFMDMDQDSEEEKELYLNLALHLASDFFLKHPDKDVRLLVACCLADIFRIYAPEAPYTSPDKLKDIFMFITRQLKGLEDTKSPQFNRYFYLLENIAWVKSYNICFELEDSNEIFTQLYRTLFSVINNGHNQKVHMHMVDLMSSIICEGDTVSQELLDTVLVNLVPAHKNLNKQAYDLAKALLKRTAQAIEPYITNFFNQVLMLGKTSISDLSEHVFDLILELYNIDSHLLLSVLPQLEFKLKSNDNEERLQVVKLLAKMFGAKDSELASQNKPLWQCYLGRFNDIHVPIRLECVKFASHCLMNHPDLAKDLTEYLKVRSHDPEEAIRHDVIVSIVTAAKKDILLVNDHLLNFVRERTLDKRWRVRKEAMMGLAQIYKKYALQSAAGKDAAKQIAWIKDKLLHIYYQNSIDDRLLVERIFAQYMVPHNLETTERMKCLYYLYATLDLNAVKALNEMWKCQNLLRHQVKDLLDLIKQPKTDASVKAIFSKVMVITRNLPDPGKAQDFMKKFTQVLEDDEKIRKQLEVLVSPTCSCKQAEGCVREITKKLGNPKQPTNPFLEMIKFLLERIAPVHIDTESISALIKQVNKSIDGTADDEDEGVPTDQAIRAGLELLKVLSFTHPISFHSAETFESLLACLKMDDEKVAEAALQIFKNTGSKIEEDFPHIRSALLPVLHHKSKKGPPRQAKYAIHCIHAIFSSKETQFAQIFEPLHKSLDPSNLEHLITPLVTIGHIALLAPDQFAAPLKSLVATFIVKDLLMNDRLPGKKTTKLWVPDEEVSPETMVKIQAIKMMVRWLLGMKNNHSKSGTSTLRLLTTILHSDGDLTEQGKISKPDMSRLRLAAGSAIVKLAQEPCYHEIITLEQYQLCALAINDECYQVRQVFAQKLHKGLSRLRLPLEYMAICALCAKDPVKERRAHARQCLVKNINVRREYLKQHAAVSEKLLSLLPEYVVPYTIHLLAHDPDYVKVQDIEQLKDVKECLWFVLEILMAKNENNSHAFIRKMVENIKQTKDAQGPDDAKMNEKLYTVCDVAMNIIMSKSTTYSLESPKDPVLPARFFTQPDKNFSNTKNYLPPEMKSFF
The assay can be described thus: pull-down.

Assay [3] concerns the target T2, recombinant human Pds5B_(1–1120). The assay can be described thus: pull-down. This is another data set of the same source.
The target of assay [4] is T3, recombinant human Pds5B_(21–1120) (human, UniProt Q9NTI5 21-1120).
T3 sequence (looked up): T1 sequence (looked up)
The experiment in a line: ITC.

In assay [5] the target is T4, recombinant human Pds5B_(21–1120) Y445A/N447A (human, UniProt Q9NTI5 21-1120, Y445A | N447A).
T4 sequence (looked up): T1 sequence (looked up) with Y425A, N427A
The experiment in a line: pull-down.

This note sets out measurements from paper PMC5560056 (Molecular cell, 2016).

Numbering of substitutions follows the chain as printed. Like-named read-outs stand apart in the source and are kept apart here.

As for MTSRFGKTYSRKGGNGSSKFDEVFSNKRTTLST (peptide, UniProt Q7Z5K2 1-33, looked up) [synthetic Wapl_(1–33) peptide], the binding result in assay [1] is recorded as “binds”.
For the molecule DARDLEMSKKVRRSYSRLETLGSASTSTPGRRSCFGFEGL (peptide, UniProt Q96FF9 132-171, looked up) [synthetic Sororin peptide (residues 132–171)], the binding result in assay [2] is “binds”.
As to LDARDLEMSKKVRRSYSRLETLGSASTSTPGRRSCFGFEGL (domain or fragment, human, UniProt Q96FF9 131-171, looked up) [Sororin residues 131–171], the binding result in assay [3] is on record as “binds”.

B1: recombinant purified Scc1_(76–150) (domain or fragment, human, UniProt O60216 76-150, looked up)
chain: ADCNEAFIKIKMAFRPGVVDLPEENREAAYNAITLPEEFHDFDQPLPDLDDIDVAQQFSLNQSRVEEITMREEVG
In general, Kd refers to the concentration at which binding is half-saturated. With B1, in assay [4], the Kd was determined as 4.3 nM.

B2: GST-Scc1_(76–150) (domain or fragment, human, UniProt O60216 76-150, looked up)
chain: B1 chain
Turning to B2, the binding result in assay [5] was “binds”.
